{"source": "paper PMC12585908", "about": "“Proteolytic cleavage activates the mitochondrial isoform of TOP3A”", "molecular_target": "T1, TOP3A 917 (truncated) (Homo sapiens, UniProt Q13472 16-917)", "T1 sequence": "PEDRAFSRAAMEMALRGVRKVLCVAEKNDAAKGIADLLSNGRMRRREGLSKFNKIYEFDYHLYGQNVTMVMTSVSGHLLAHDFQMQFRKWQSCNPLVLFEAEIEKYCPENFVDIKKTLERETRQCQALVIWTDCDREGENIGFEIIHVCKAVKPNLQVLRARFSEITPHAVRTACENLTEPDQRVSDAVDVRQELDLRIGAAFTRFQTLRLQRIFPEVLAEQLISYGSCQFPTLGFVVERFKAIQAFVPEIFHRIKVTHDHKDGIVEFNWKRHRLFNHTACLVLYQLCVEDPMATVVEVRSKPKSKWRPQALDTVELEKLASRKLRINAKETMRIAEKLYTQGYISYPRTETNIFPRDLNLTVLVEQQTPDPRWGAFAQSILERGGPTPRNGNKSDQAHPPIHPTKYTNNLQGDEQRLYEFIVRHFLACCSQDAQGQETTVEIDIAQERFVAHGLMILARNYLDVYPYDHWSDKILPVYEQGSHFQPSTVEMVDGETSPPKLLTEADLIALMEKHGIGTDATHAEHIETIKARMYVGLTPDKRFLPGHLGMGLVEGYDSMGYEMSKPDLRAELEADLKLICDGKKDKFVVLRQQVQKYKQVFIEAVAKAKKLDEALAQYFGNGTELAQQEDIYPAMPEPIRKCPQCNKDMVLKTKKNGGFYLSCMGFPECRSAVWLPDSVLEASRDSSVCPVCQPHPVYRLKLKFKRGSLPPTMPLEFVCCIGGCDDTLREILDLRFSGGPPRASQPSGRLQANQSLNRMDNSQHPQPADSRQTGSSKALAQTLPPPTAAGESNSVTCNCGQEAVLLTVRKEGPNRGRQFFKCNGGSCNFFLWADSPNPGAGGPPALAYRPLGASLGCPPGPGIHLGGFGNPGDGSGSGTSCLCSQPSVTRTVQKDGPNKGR", "assay": "EMSA; no Mg2+ added; higher binding than full-length; 25 mM HEPES pH 7.5, 70 mM NaCl, 100 ug/ml BSA, 1 mM DTT, 10% glycerol, 10 fmol DNA in 20 ul, 37 C 15 min; 8% PAGE in 0.5x TBE at 4 C", "settings": "protein: recombinant; tags: 6xHis removed with TEV (cloning section: N-terminal TEV-cleavable 6xHis; purification section says C-terminal 6xHis); label: 5' 32P; single strand", "data": [{"binder": "TGTTATTATTATGTCCTACAAGCATTAATTAATTAACACA (ssDNA)", "note": "[EMSA substrate (40 nt ssDNA)]", "values": [{"measurement": "binding result", "value": "binds"}]}]}
